# In PMC2965138, “DEB025 (Alisporivir) Inhibits Hepatitis C Virus Replication by Preventing a Cyclophilin A Induced Cis-Trans Isomerisation in Domain II of NS5A” (PLoS ONE, 2010):
# B1: Pep-WT (residues 308-327 of NS5A from HCV GT1b Con1) (peptide)
# peptide: KFPRAMPIWARPDYNPPLLE
# notes: NS5A domain II of hepatitis C virus genotype 1b (Con1), residues 308-327; numbers count on: NS5A itself; also called WT peptide; Pep-WT peptide; source: synthetic peptide, bought: Neosystems (Strasbourg, France), purity greater than 95%
# B2: Pep-D320E (residues 308-327 of NS5A from HCV GT1b Con1 with D320E) (peptide)
# peptide: KFPRAMPIWARPEYNPPLLE
# notes: numbers count on: NS5A itself; also called D320E peptide; Pep-D320E peptide; source: synthetic peptide, bought: Neosystems (Strasbourg, France), purity greater than 95%
# Molecular target: T1, Recombinant 15N-labelled CypA (UniProt P62937 1-165, 15N-labelled)
# T1 construct: Cyclophilin A (CypA), peptidyl-prolyl cis-trans isomerase; also called 15N-CypA; source: recombinant, produced and purified as described previously [18]
# Experiment: NMR titration; 15N-labelled CypA (100 µM) mixed with increasing concentrations of unlabelled peptide (0 to 2.5 mM); 1H,15N HSQC at each step; KD fitted from combined chemical shift perturbations
# Conditions: both partners purified
row,Binder,Kd [µM]
1,B1,802
2,B2,1230
